Test results published in the supplement of paper PMC10567573.

B1: MNAT1 (parent)
chain: SLREYNDFLEEVEEIVFNLTNNVD
B2: MLL5 (parent)
chain: DCMGIDRQHIPDTYLCERCQPRNL

Variants of: B1
Experiment: protein stability index of a GFP-peptide fusion (GPS, HEK-293T) (PSI 1-6); higher = more stable
Settings: c terminus: a fixed tail appended
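Also: lentivirally expressed fusions sorted by FACS into six bins by GFP to DsRed ratio, PSI derived from sequencing read proportions per bin multiplied by bin number.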

Protein stability index of substitutions, site by site:
L19: C 3.34, M 2.89, P 4.05, E 4.55, H 4.43, S 4.18, T 3.6, V 2.97, Y 3.06, K 4.26, N 3.76, R 3.34, F 2.24, Q 4.07, D 4.43, W 1.63, A 3.2, G 4.19, I 1.84
D24: F 1.87, N 1.31, L 1.82, I 1.85, S 2.07, W 1.54, E 2.47, R 1.26, V 1.65, K 1.81, G 2.61, T 1.82, Y 1.9, A 1.79, P 2, Q 1.73, H 1.88, C 1.5
F17: T 3.16, L 2.19, V 2.82, M 2.57, Q 2.78, H 3.15, W 1.95, D 3.2, Y 1.91, N 2.16, E 3.34, A 2.46, R 2.2, K 2.38, S 3.11, P 4, C 2.88, G 3.4
N18: K 2.01, R 1.6, M 1.84, Y 1.4, Q 1.73, G 2.38, A 1.84, V 2.32, T 2.55, F 2.22, S 2.16, W 2.52, E 2.16, H 1.85, D 2.36, C 1.71, P 2.71
I15: M 2.51, E 4.66, W 2.16, D 4.82, S 3.89, K 4.08, F 2.23, H 3.9, C 3.63, G 4.71, P 4.71, L 1.9, Q 3.87, R 3.84, T 3.77, Y 3.35, A 3.78, V 3.31, N 4.25
E13: Y 1.63, S 1.74, K 2.69, L 2.5, A 1.77, W 2.52, I 2.58, H 2.15, C 2.34, Q 1.93, F 2.27, T 1.58, N 2.37, R 1.87, V 2.87, G 2.43, P 3.69, D 2.87, M 2.94
T20: Q 2.37, V 1.33, K 2.41, L 2.75, Y 1.5, G 2.31, F 1.5, I 1.41, E 2.51, C 2.31, H 2.25, W 2, M 1.86, P 3.19, D 3.91, R 2.46, A 1.07, N 2.56, S 3.05
N21: D 3, I 1.73, G 2.58, P 2.19, E 2.51, C 1.48, H 1.76, K 1.45, S 1.68, M 2.48, R 1.95, Y 2.4, A 1.42, Q 3.08, T 2.42, L 1.81
E14: F 2.82, C 2.24, Y 2.6, S 2.26, H 2.19, M 2.22, R 2.15, G 2.34, A 1.82, N 2.11, W 1.75, P 3.38, T 1.87, V 1.61, L 2.12, D 2.88, Q 2.46, K 1.87
V12: R 4.19, M 1.74, H 3.48, L 1.09, K 4.72, T 3.48, W 1.87, N 4.83, G 4.16, Y 3.04, I 2.13, P 3.91, S 4.5, Q 4.08
N22: Q 1.84, S 1.78, A 2.69, E 2.38, T 2.06, V 1.9, Y 1.38, C 1.66, L 1.16, R 2.09, G 2.96, F 2.47, P 2.25, M 1.44, I 2.25, H 2.15, W 2.97, K 2.64, D 1.98
V23: T 2.5, Q 2.21, W 1.57, K 2.08, N 2.35, S 3.05, E 2.82, D 2.92, F 2.71, R 2.18, L 1.64, P 3.05, M 1.44, G 2.73, C 2.47, H 2.38, Y 1.8, I 1.98, A 2.69
V16: W 2.83, D 4.87, K 2.84, I 2.46, H 3.86, Y 2.63, M 2.51, R 3.04, N 4.53, P 4.18, A 3.36, E 4.36, Q 3.99, L 1.14, S 4.58, F 1.75, G 3.86, C 3, T 3.21

Variants of: B2
Experiment: as above
Settings: c terminus: a fixed tail appended

Protein stability index: each site, then its substitutions
D6: C 3.29, F 1.74, E 2.78, A 3.27, I 1.56, G 2.78, H 3.19
G4: C 3.73, V 2.38, D 3.11, E 3.23, I 2.41, M 2.88, W 1.78, A 2.23, K 3.19, S 3.45, Y 2.49, N 2.19, P 2.55, Q 2.88, L 2.63, T 3.23, R 2.48, F 2.37, H 3.98
D1: C 3.63, V 2.86, P 3.3, A 2.69, E 2.63, M 1.91, H 2.73, L 2.21, S 3.17, I 2.17, Y 1.95, W 1.4, T 2.43, K 2.58, R 2.42, N 2.21, Q 2.41, F 1.89
I5: T 3.69, A 3.7, M 3.1, V 3.16, F 2.85, K 3.48, E 3.57, G 3.5, W 2.88, H 3.99, Q 3.37, R 3.37, C 3.73, P 3.27, Y 2.61, S 2.54, D 2.87, N 3.67
M3: F 2.57, S 3.66, D 3.75, W 3.54, K 3.63, V 2.9, G 2.94, Q 2.48, P 3.32, T 2.47, E 4.56, C 3.14, N 2.88, Y 3.03, H 2.81, A 2.48, L 2.89, I 2.77, R 2.61
C2: W 2.21, M 2.89, L 2.73, R 3.38, S 2.63, E 3.79, N 3.41, V 2.77, K 2.99, H 3.36, D 3.08, Q 3.48, I 2.57, T 3.21, G 2.7, P 4.03, A 3.09, Y 2.53, F 2.1
